Laboratory results published in patent US11402384B2 (Duke University, priority 2015, dated 2022).
Marks after values point to notes of the source that are not given here.

B1: smGBP7: glucose-binding protein from Staphylothermus marinus, SEQ ID NO: 15 (protein)
chain: MELVIYHWWTAGGEREAINAVFQVFKQKYPNIQIVENPVAGGAGSVMKSVIIGLLAAGTPPDTFQVHAGAELKEYVDAGYLAPIDDIWSKLGLDKVIPSTLQVMAKFNGHYYAVPIDVHRSNVLWYNPKIFNELGIINKFGDPRNWSVDTLLQVARYIKQQRPDIAPIALASRNKWPVTHLFEVLLANAGGPETYVKFFTGKFNYNDPNDPVVQTVKKVLTVMATMAKEGLFNSNHPELTWDQAAALVAEGKAAMFIHGDWVAGYYIANNYKYGKDWAAAPFPKNIFILLSDAFELPKNAPHPEAAKDWLMVVGSKEAQEKFNLIKGSIPARTDVSPKYPDPYRPETAEDFQKSTLIPSAVHGGIAKEAFMTDLHNILTSMLTAVSVGTPVDNAVNTALAQILQSVKTSGLASFWKGYTIDYFITKRGGSHHHHHH
modifications: smGBP7 (with signal peptide replaced with M and a GGSHHHHHH at C-terminus)
B2: tsGBP2: glucose-binding protein from Thermus scotoductus, SEQ ID NO: 10 (protein)
chain: MKLEIFSWWAGDEGPALEALIRLYKQKYPGVEVINATVTGGAGVNAKAVLKTRMLGGDPPDTFQVHAGQELIGTWVVADRMEDLTSLFRQEGWLQAFPKGLIDLLSYKGGIWSVPVNIHRSNVMWYIPAKLKEWGVTPPKTWAEFLATAQTLKRKGLEAPLALGENWTQQHLWESVALATLGADGWNNLWSGKLKFTDPKAVAVWETFGKVLDAANKDAAGLSWQQAVDRVVQGKAAFNIMGDWAAGYMSTTLKLKPGTDFAWTPSPGTSGIFMMLSDSFGLPKGAKNRQNAINWLKLVGSKEGQDTFNPLKGSIAARLDSDPAKYNAYGQSAMKDWKSNRIVGSLVHGAVAPESFMSQFGTVMEIFLQSRNPQAAANAAQAIANQVGLGRGGSHHHHHH
modifications: tsGBP2 (with signal peptide replaced with M and a GGSHHHHHH at C-terminus)
B3: asGBP8: glucose-binding protein from Arthrobacter sp., SEQ ID NO: 16 (protein)
chain: MKLEITSWWTSGSEADALNVLIDGVKAAKPGLSVDNAAVSGGGGANARQALAARLQAGSPPDAWQVHPAGQLKSYVDGGQVADLTDLWTEGDWASQMPKDVAEAQQVDGKYYTVPIGVHRGNVLWTNPAVLSKANVTIDADAGIDGLISSLEQVQASGTTPLALGDKDIFASSQLLESLIMSRAGADNWTKLFTSEYSFDAPEVKQALEDYKTILSFANKDHSAITWDEAAKKMADGEAAVNLMGDWAYGELLNAGKKPGTDFAWVAFPGKEDIFDYVGDGFSIPANNIPHAEAARAWLKTLMDPKIQTEFAAKKGSIPAVTSADISGLSEYQQEAAKSLASGAVVSSLAHAQAAGAEFAQTYADAVSTFNGSGNTDAFIASMTQAQKTQLGGSHHHHHH
modifications: asGBP8 (with signal peptide replaced with M and a GGSHHHHHH at C-terminus)
B4: bhGBP6: glucose-binding protein from Bacillus halodurans, SEQ ID NO: 14 (protein)
chain: MLEIFSWWTGAGEEDGLLALIELFEEKHPEIEVDNAAVAGGAGTNAKAVLTSRMQGNDPPGTFQVHGGAELNDSWVAAGQMDPLNDLFEAEGWADKFPEELIELVSKDGNIYSVPVNIHRGNVLWYNTEIFEEHGLEVPTTFEEFFDVADALQEAGVTPLALGDREPWAATHLFETVLLGTLGADDYNKLWSGEVGMDDPRVEEAAEIFIRMLDYVNEDHSSRNWQDASQLVAQGEAAMNVMGDWAKGYFVNDLNLAVKEDFGWAATPGTEGTFMVITDTFGLPTGVENPEVVKSFLAVLGSQEGQDAFNPLKGSIPARVDADVSKYDEYGQETIEDFKSAELSPSLAHGSAANEGFLTQVNQAINIFVTQKDVDSFVDSLKQYQPGGSHHHHHH
modifications: bhGBP6 (with signal peptide replaced with M and a GGSHHHHHH at C-terminus)
B5: tnGBP4: glucose-binding protein from Thermotoga neapolitana, SEQ ID NO: 12 (protein)
chain: MLEIFSWWTAGGEAEALEALIKVFNKYYPDVEVINATVAGGAGTNAKAVLKTRILGGNPPDSFQVHAGMELIDTYVIPGYMTPITNLLEQWGVMDKFPKGILEMASYEGEIYSIPVNVHRGNVVFYNKKIAEEIGMNEPPKTWDEFIMYLQKAKEKGYVGLALGDKNKWTALHLFETILLGVLGPNDYNGLWKGEVSFNDPRIRRAFEIMNKLLDYVNEDHAALAWQDATRLVYEGKALANVMGDWAEGYLKSVGWEPGKDFGWFAVPETQNAFMVVSDTFGLPKNAPHKENAVKWLKVVASVEGQDAFNPIKGSIPARLDADRSKYDIYLQWSMEDFATKALTPSIAHGSAAPEGFVTTLNDIINRFVTTRDIDSALEELLMAAEDEGYLVEGGSHHHHHH
modifications: tnGBP4 (with signal peptide replaced with M and a GGSHHHHHH at C-terminus)
B6: ttGBP1: glucose-binding protein from Thermus thermophilus, SEQ ID NO: 9 (protein)
chain: MKLEIFSWWAGDEGPALEALIRLYKQKYPGVEVINATVTGGAGVNARAVLKTRMLGGDPPDTFQVHAGMELIGTWVVANRMEDLSALFRQEGWLQAFPKGLIDLISYKGGIWSVPVNIHRSNVMWYLPAKLKGWGVNPPRTWDKFLATAQTLKQKGLEAPLALGENWTQQHLWESVALAVLGPDDWNNLWNGKLKFTDPKAVRAWEVFGRVLDAANKDAAGLSWQQAVDRVVQGKAAFNIMGDWAAGYMTTTLKLKPGTDFAWAPSPGTQGVFMMLSDSFGLPKGAKNRQNAINWLRLVGSKEGQDTSNPLKGSIAARLDSDPSKYNAYGQSAMRDWRSNRIVGSLVHGAVAPESFMSQFGTVMEIFLQTRNPQAAANAAQAIADQVGLGRLGQHHHHHH
modifications: ttGBP1 (with signal peptide replaced with M and a HHHHHH at C-terminus)
B7: koGBP5: glucose-binding protein from Kosmotoga olearia, SEQ ID NO: 13 (protein)
chain: MLEIFSWWTGGGEEEGLLALFDVFHKYYPDVEIINATVAGGAGTNAKAVLKTRMLGGNPPDSFQVHGGMELIDTYVVTGMMEPITDLLEEWGIIDKFPEDILKIASYKGEVYSIPVNVHRGNVVFYNKAILEEVGIEKVPSTWPEFIEVLKKIKKAGYIPLALGDKNKWTATHLFEDILLSTLGPYNYNGLWNGRTSFEHQGVKEALEIFKELMNYVNPNHASLTWQDATLLVFEGKAAFNVMGDWAEGYLKTLGWTPGKEFGWMVVPGTKGSFMVVTDTFGLPKNAPHRENAIKWLKIISSVEGQDTFNPIKGSIPARIDADRSLYDDYLIWSMDDFATNALCPSIIHGSAAPEAFVTALNDTINMFITRKDVKKALKEIIYAAEDYLEGGSHHHHHH
modifications: koGBP5 (with signal peptide replaced with M and a GGSHHHHHH at C-terminus)

Conditions: determined using fluorescent Acrylodan and/or Badan conjugates
Method: Eight homologs that were predicted to be glucose-binding proteins (FIG. 4, Table 3) were selected to probe different degrees of sequence identity to the ttGBP1 seed, and their glucose-binding properties were determined experimentally. These experiments comprised four successive steps: • 1. Synthetic gene construction. The amino acid sequence of the homology leads were backtranslated into DNA sequences. These were optimized for directing heterologous cytoplasmic expression of the protein homologues in E. coli, using either the OrfOpt or OrfMorph programs. These programs predict mRNA sequences that direct high-level protein expression in E. coli. The predicted gene sequences were assembled de novo from synthetic oligonucleotides. • 2. Heterologous protein expression of the homologues in E. coli. Plasmids carrying the synthetic expression constructs (see above) were transformed into KRX competent cells (Promega). Protein production was induced in bacterial cultures of these cultures, as described in the Materials and Methods. • 3. Purification of successfully expressed protein using immobilized metal affinity chromatography. • 4. Verification of glucose binding. Determination of the glucose-binding properties of the purified proteins using a thermal stability shift assay.
Analysis of glucose-binding properties using thermal melts. The thermal stability of purified GBP candidate proteins was determined by measuring the temperature-dependence of the fluorescence signal of an extrinsically added dye, SYPRO, using a Roche LightCycler (Layton and Hellinga, 2010, Biochemistry, 49, 10831-41). The total fluorescence intensity, S, is given by S=βFfF+βUfU 11 where fF and fU are the fractions of protein in the folded and unfolded states, respectively, and βF and βU the fluorescence baselines of these two states. To get the fractions of the two states, we have
[formula] where KU(T) is the temperature-dependent unfolding equilibrium constant, which by the van't Hoff approximation is given by
[formula] Where T is the temperature, Tm, the unfolding reaction transition mid-point temperature, and ΔHU the enthalpy of unfolding.
For B1, the “Thermostability ^apoTm” value was 40^f ° C.

Same assay, conditions: ligand-free protein; SYPRO Orange, Roche LightCycler
For B2, the “Thermostability ^apoTm” value was over 100 °C. For B3, the “Thermostability ^apoTm” value was 58 °C. In the case of B4, the “Thermostability ^apoTm” value is reported as 53 °C. For B5, the “Thermostability ^apoTm” value was over 100 °C. In the case of B6, the “Thermostability ^apoTm” value is reported as over 100 °C. For B7, the “Thermostability ^apoTm” value was over 100 °C.
